Values quoted from earlier work, collected in patent US20040162315A1, “Use of compounds for treating conditions resulting from injury to the corneal nerve after LASIK and other ocular surgeries or trauma” (priority 2002, published 2004).

Test system: axotomized ocular nerves
Conditions: single intravitreal injection of 5 μg, administered during the first five days after injury

B1: BDNF: neurotrophin family peptide, TrkB receptor-selective ligand (protein, UniProt P23560 19-247, looked up)
Neurotrophic factor BDNF …: APMKEANIRGQGGLAYPGVRTHGTLESVNGPKAGSRGLTSLADTFEHVIEELLDEDQKVRPNEENNKDADLYTSRVMLSSQVPLEPPLLFLLEEYKNYLDAANMSMRVRRHSDPARRGELSVCDSISEWVTAADKKTAVDMSGGTVTVLEKVPVSKGQLKQYFYETKCNPMGYTKEGCRGIDKRHWNSQCRTTQSYVRALTMDSKKRIGWRFIRIDTSCVCTLTIKRGR
**Q.** With B1 as the molecule, how does the “death of the axotomized ocular nerves” value read?
**A.** Its value is “prevented the death of the axotomized ocular nerves”.
